This is an account of results in patent publication US6544767B1, “Cathespin O2 protease” (Axys Pharmaceuticals, Inc., priority 1994, dated 2003).

This assay deals with T1, recombinant human cathepsin O2 (Homo sapiens, UniProt P43235).
T1 construct: the mature protein spans from position 115 to 329 (215 amino acids); made in house; host or cells: Sf9 insect cells (baculovirus, pVL1392)
T1 sequence (P43235 115-329): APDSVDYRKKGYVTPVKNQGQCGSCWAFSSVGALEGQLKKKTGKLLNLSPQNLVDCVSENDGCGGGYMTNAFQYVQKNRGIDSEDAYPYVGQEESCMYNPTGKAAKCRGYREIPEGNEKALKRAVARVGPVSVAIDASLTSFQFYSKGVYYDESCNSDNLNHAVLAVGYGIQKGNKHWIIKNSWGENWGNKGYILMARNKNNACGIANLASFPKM
The experiment in a line: Inhibitor profile, fluorimetric enzyme assay with Z-FR-MCA. In kind it is biochemical. The procedure:
Human cathepsin O2 was assayed with a fluorogenic substrate Z-FR-MCA (MCA, methyl coumarylamide) in 100 mM sodium acetate buffer, containing 2.5 mM dithioerythreitol and 2.5 mM EDTA. Initial rates of hydrolysis of the MCA-substrate are monitored in 1-cm cuvettes at 25° C. at an excitation wavelength at 380 nm and an emission wavelength at 450 nm. The concentration of Z-FR-MCA is 5 μM under standard conditions.
The inhibition of cathepsin O2 was assayed at a constant substrate (5 μM Z-FR-MCA) and enzyme concentration (1 nM) in the presence of different inhibitor concentrations in the substrate assay buffer. Cathepsin O2 was preincubated with the inhibitors for 10 min and the reaction was started with substrate. The residual activity was monitored and percent inhibition was calculated from the uninhibited rate.
The efficacy of protease class specific inhibitors to inhibit cathepsin O2 was determined by adding the inhibitor to the purified enzyme in a fluorimetric enzyme assay (described above).

B1: chicken cystatin: cysteine protease inhibitor (protein)
chain: SEDRSRLLGAPVPVDENDEGLQRALQFAMAEYNRASNDKYSSRVVRVISAKRQLVSGIKYILQVEIGRTTCPKSSGDLQSCEFHDEPEMAKYTTCTFVVYSIPWLNQIKLLESKCQ
By % inhibition is commonly meant how much of the control response was suppressed. Consider B1, for which, where the note is “[inhibitor] 0.1 μM”, the “% inhibition” value was found to be 100%. Also, for the setting “concentrations above 0.1 μM”, the “inhibition of enzyme activity” value is given as “completely inhibit”.
